Source: the supplement of paper PMC9170038

Assays:
MS2 coat protein [1] = assay: apparent KD of MS2 coat protein; designed switch direction (-1 OFF switch, 1 ON switch): 1; higher = weaker reporter binding
Outline: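 The buffer was Tris-HCl pH 7.5 with KCl, MgCl2, BSA, DTT, tRNA and Tween-20. In it, SNAP-549-labelled MS2 coat protein was titrated in doubling steps from 0.7 or 1.5 nM to 3 µM over chip-bound RNA switches transcribed by stalled E. coli RNA polymerase on Illumina chips. Apparent KD is the per-design median over clusters of curve fits to normalised fluorescence.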

MS2 coat protein [2] = assay: apparent KD of MS2 coat protein; higher = weaker reporter binding; conditions: Eterna round: R107
Outline: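 Apparent KD stands for the median, per design, of fits to normalised cluster binding curves. The curves came from titrating on-chip-transcribed RNA switches on Illumina sequencing clusters with SNAP-549-labelled MS2 coat protein, twofold from 0.7 or 1.5 nM to 3 µM. Buffer was 100 mM Tris-HCl pH 7.5, 80 mM KCl, 4 mM MgCl2, without or with constant ligand.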

[3] = input ligand: microRNA oligo, concentration not stated
[4] = Eterna round: R95, input ligand: FMN 200 uM
[5] = Eterna round: R95, input ligand: microRNA oligo, concentration not stated
[6] = Eterna round: R95, input ligand: none
[7] = input ligand: theophylline 20 uM
[8] = input ligand: theophylline 2 mM
[9] = input ligand: tryptophan 2.4 mM

Sequence	apparent KD of MS2 coat protein (MS2 coat protein [1]; input ligand: FMN 200 uM)	apparent KD of MS2 coat protein (MS2 coat protein [1]; [3])	apparent KD of MS2 coat protein (MS2 coat protein [1]; input ligand: none)	apparent KD of MS2 coat protein (MS2 coat protein [2]; input ligand: arginine 13.2 mM)	apparent KD of MS2 coat protein (MS2 coat protein [2]; [7])	other results
UGGCUCAGACGAGGAUAUACGUGGUCACAUGAGGAUCACCCAUGUCUCGAGCUUCGGCUCGAGGCGUAGAAGGCGUCUGAGCCA [SSNG2/6-A2] (Eterna round: R96, puzzle: Same State NG 2)	125 nM	141 nM	218 nM			
AUUUUUAAUGCAGGAUAUGAUUAACAUGAGGAUCACCCAUGUGGUGUUGUGAGUAAGGAGAGUGAUCAGAAGGGCAUCUUUUCA [SS-NG2-LRO02] (Eterna round: R96, puzzle: Same State NG 2)	679 nM	216 nM	372 nM			
GUGGUCAGACAUGAGGAUCACCCAUGUGGAAUAAAUAACAGACAGGAUAUCUAAUAUAGGAUAUAGGAGAAGGGUCGAUUGGUG (Eterna round: R96, puzzle: Same State NG 3)		73.5 nM				
AUUAUUUAUGCAGGAUAUGAUUAACAUGAGGAUCACCCAUGUGGUGUUGUGAGUAAGGAGAGUGAUCAGAAGGGCAUCUUUUUU [JMF's solution 44] (Eterna round: R96, puzzle: Same State NG 2)	610 nM	227 nM	414 nM			
GGGCCACAUGAGGAUCACCCAUGUGGAGCUAGUGCACGGUCACAGGAUAUCUCGUGGGCGUAUAGGGAGAAGGGUGAUUCAUUA [Eternabot solution 18] (Eterna round: R96, puzzle: Same State NG 3)	47.2 nM	51.3 nM	52.3 nM			
GGAUGAUUAACAGGAUAUCAUUUGUAAAUUGGUUGAGAAGGGUUAAUGAUUUACACGACCUGUUACAUGAGGAUCACCCAUGUU [SameState NG1 #2] (Eterna round: R96, puzzle: Same State NG 1)	41 nM	33.8 nM	47.2 nM			
CCGGCAAGUAUAGGAUAUCCCGCUACAGAAGCGGGAGAAGGGUGCCAAACAUGAGGAUCACCCAUGUACACCGGAAAUAUAUAA [Soorve] (Eterna round: R96, puzzle: Same State NG 1)	36.4 nM	31.2 nM	34.6 nM			
AAUAAACAUGAGGAUCACCCAUGUAAUAUAAAUGGAGGAUAUGCAAUUAUUAAUUAUUAAGUAGAAGGUCGAAUAA [Lollin - Epsilon 1] (puzzle: Same State 1)						apparent KD of MS2 coat protein (MS2 coat protein [1]; [4]): 62.1 nM; apparent KD of MS2 coat protein (MS2 coat protein [1]; [5]): 55.7 nM; apparent KD of MS2 coat protein (MS2 coat protein [1]; [6]): 91.2 nM
AUGAAGAACUAAGGAUAUUGAAUACAUAUGUUUAACAUGAGGAUCACCCAUGUGGGUUGCGGUAUCGAGAAGGUAGAAUAAUAG [Mat - same State NG 2 - JL mod - D92] (Eterna round: R96, puzzle: Same State NG 2)	95.7 nM	70.3 nM	123 nM			
UCUUGGUUUUUGCUCGUUUUUUGUGUUGAACAUGAGGAUCACCCAUGUAUUGUACGGUCCAGUUUGGUAAUGGUCCG [JMF 35] (puzzle: Sensor for hsa-mir-208a)						apparent KD of MS2 coat protein (MS2 coat protein [1]; [4]): 25 nM; apparent KD of MS2 coat protein (MS2 coat protein [1]; [5]): 14.9 nM; apparent KD of MS2 coat protein (MS2 coat protein [1]; [6]): 26.4 nM
UUGAAGAAUAUAGGAUAUUGAAUACAUAUGUUUAACAUGAGGAUCACCCAUGUGGGUUGCGGUAUCGAGAAGGAUAAAUAAUAG [Mat - Same State NG 2 - JL mod - D13] (Eterna round: R96, puzzle: Same State NG 2)	196 nM	122 nM	190 nM			
AGCUAUCGAAAACGAUAGCAAAAGCAUGUACAUGAGGAUCACCCAUGUCAUGUACAAGCUUUUUGCUCGUCUUGAAA [Zipper 23 - 9] (Eterna round: R96, puzzle: Sensor for hsa-mir-208a)	496 nM	16.6 nM	824 nM			
CGUGAACAUGAGGAUCACCCAUGUGAAAAACGUAGAGGAUAUGUCACAUGAGUGUAAAAGACAGAAGGCUAUCGUG [Mod 2 of Round 1 starryjess' Mod pf Nando] (Eterna round: R96, puzzle: Same State 1)	35.4 nM	172 nM	243 nM			
UUAAUGAUGUAAGGAUAUACAUGAGGAAAUCUCGUAGAAGGUACAGGACAUGAGGAUCACCCAUGUGUCGCUCAGAAGAGCGUA [Mat - Same State NG 1 - JL mod - D18] (Eterna round: R96, puzzle: Same State NG 1)	86.3 nM	39.6 nM	71.2 nM			
AUAAGUCCGAUGCUCGUCUCUCCGUACAAACAUGAGGAUCACCCAUGUGAUCGGGAAGUAGCCCGAUCAGUAUGGCC [Erardius] (puzzle: Sensor for hsa-mir-208a)						apparent KD of MS2 coat protein (MS2 coat protein [1]; [4]): 45.5 nM; apparent KD of MS2 coat protein (MS2 coat protein [1]; [5]): 22.6 nM; apparent KD of MS2 coat protein (MS2 coat protein [1]; [6]): 48.3 nM
AACUAACAUGAGGAUCACCCAUGUUGCAGCGGUUGAGGAUAUGUGGGUGAAAAUAGCAUGGCAGAAGGCGAGUGUA [SameState1 Malc#25] (Eterna round: R96, puzzle: Same State 1)	407 nM	95.9 nM	208 nM			
AGUCCAGCCUGAGCUGGACAAAAGCAUGUACAUGAGGAUCACCCAUGUUCAUGUACAAGCUUUUUGCUCGUCAAAAG [Mat - hsa-mir-208a - Mod of JL - 67] (puzzle: Sensor for hsa-mir-208a)						apparent KD of MS2 coat protein (MS2 coat protein [1]; [4]): 180 nM; apparent KD of MS2 coat protein (MS2 coat protein [1]; [5]): 18.3 nM; apparent KD of MS2 coat protein (MS2 coat protein [1]; [6]): 372 nM
GGACGGUUAUCAGGAUAUGCGCUGAGCAUCACGGCUACAUGAGGAUCACCCAUGUCUAGCUUCUCGCAGAAGGGAUAGCCUCCU [Eternabot solution 36] (Eterna round: R96, puzzle: Same State NG 2)	11.2 nM	10.1 nM	15 nM			
GGUGCAAUAAACGCCUACAUGAGGAUCACCCAUGUAUGUAGGCAGGAUAUCGUAUGCAAAGCAUACGAGAAGGGCUAUAGUACC [Mat - Same State NG 3 - JL Mod - D45] (Eterna round: R96, puzzle: Same State NG 3)	57.1 nM	124 nM	146 nM			
CAGCACUGUCGAGAGGAUAUGCGGUGGUAGACAUGAGGAUCACCCAUGUUAGCGACAGCAUCACGGCAGAAGGCUCUGCUGCUGC [Soteed Omei mod 41] (puzzle: Same State 2)						apparent KD of MS2 coat protein (MS2 coat protein [1]; [4]): 37.3 nM; apparent KD of MS2 coat protein (MS2 coat protein [1]; [5]): 96.2 nM; apparent KD of MS2 coat protein (MS2 coat protein [1]; [6]): 146 nM
UAAUUUAUAGGGUAUAUCAGAUUAACUGAAGGAGCGUGGUAAUACACAGGUAGGUCGCAGAUGGAACAUGAGGAUCACCCAUGUU [JR_ExcArginiA_Sub016]				17.6 nM	27 nM	apparent KD of MS2 coat protein (MS2 coat protein [2]; input ligand: none): 20 nM; apparent KD of MS2 coat protein (MS2 coat protein [2]; [8]): 25.7 nM; apparent KD of MS2 coat protein (MS2 coat protein [2]; [9]): 21.2 nM
AAAUAAAUAACUGAUACCAGUGUACUGACAUGAGGAUCACCCAUGUUGGGUUUUGUUGUACACCCUUGGCAGCAGAAAUAUAAAA [AstrosExyTheB#1]				28.7 nM	41.2 nM	apparent KD of MS2 coat protein (MS2 coat protein [2]; [9]): 37.9 nM
CGCCACUCGAGUGAUCCUCACGAGUGGCUACGAGGACCGGUACGGCCGCCACUCGAAUUAACAUGAGGAUCACCCAUGUACUCCA [Brourdmod10]				17.4 nM	173 nM	apparent KD of MS2 coat protein (MS2 coat protein [2]; [8]): 193 nM
AACAUGAGGAUCACCCAUGUGUCCUCGAAACGAGGACCGGUACGGCCGCCACUCGAAAGGUGUUGACGAAAAGUCAGCACCAAAA [Mat - Exclusion - Trytophan A - D15]				122 nM	351 nM	apparent KD of MS2 coat protein (MS2 coat protein [2]; [8]): 412 nM
AGUGGUGCAACUGAUACCAGAUUUAUACGAGACAUGAGGAUCACCCAUGUCGAAAGACAAAUCCCUUGGCAGCAGACACGAUCCC [theeternabot_sameState_MS2_Theo_B_25]				9.88 nM	10.4 nM	apparent KD of MS2 coat protein (MS2 coat protein [2]; [9]): 9.65 nM
UUAAGAGGAUAUCAAAUUUGAUUUUGUGAUACCAGAAUAAUUUUAUUCCCUUGGCAGCAUGACAUGAGGAUCACCCAUGUGUCUU [SSTheo A #1]				37.3 nM	44.3 nM	apparent KD of MS2 coat protein (MS2 coat protein [2]; [9]): 30.9 nM
UUUCUUUUCUUUCUUUCCUUUCAAACCGAAGGAGCGGGAACAAACCCAGGUAGGUCGCGGUGUGACAUGAGGAUCACCCAUGUGU [Exclusion - Arginine]				65.5 nM	106 nM	apparent KD of MS2 coat protein (MS2 coat protein [2]; input ligand: none): 78 nM; apparent KD of MS2 coat protein (MS2 coat protein [2]; [8]): 85 nM; apparent KD of MS2 coat protein (MS2 coat protein [2]; [9]): 58.1 nM
AGGAACAUGAGGAUCACCCAUGUAAGCGAUACCAGUGAUAUGUUGCGCCCUUGGCAGCGCAAGUGUGUGUGAAAGAUGUAAGAUU [Eclusion - Theophylline A / A]				14.6 nM	29.3 nM	apparent KD of MS2 coat protein (MS2 coat protein [2]; [9]): 16.7 nM
CAGAACAUGAGGAUCACCCAUGUAAACGACCGAGGACCGGUACGGCCGCCACUCGAUAUGUCUUGAGGGAGAUAUGGAUUCACAU [theeternabot_sameState_MS2_Trp_A_46]				23 nM	51.4 nM	apparent KD of MS2 coat protein (MS2 coat protein [2]; [8]): 44.4 nM
